Assay results from US8703459B2, “Catalytic domains of beta(1,4)-galactosyltransferase I having altered metal ion specificity” (The United States of America, as represented by the …, priority 2003, dated 2014).
Like-named read-outs stand apart in the source and are kept apart here. Marks after values point to notes of the source that are not given here.

T1: M344H-Gal-T1 (Bos taurus, UniProt P08037, C342T/M344H)
T1 construct: codes for residues 130 to 402 of bovine Gal-T1; made in house; host or cells: E. coli BL21(DE3) pLysS (pET23a derivative pEGT-d129)
T1 sequence (P08037 130-402 C342T/M344H): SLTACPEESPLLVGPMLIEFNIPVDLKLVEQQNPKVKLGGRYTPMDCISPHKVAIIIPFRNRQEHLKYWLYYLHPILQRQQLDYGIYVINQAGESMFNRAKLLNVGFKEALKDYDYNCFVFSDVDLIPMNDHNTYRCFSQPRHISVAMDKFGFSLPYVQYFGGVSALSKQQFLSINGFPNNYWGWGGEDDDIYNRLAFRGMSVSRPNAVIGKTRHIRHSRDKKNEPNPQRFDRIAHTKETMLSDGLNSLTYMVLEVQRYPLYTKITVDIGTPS


Experiments:
Type in all cases: biochemical, bovine
M344H-Gal-T1 = target: T1, M344H-Gal-T1; experiment: Acceptor substrate inhibition of M344H-Gal-T1 catalytic activity; settings: in the presence of Mn^2+ (5 mM in FIG. 7c)
Protocol: (§1) FIG. 7 depicts the effect of GlcNAc concentration on Gal-T activity of the M344H-Gal-T1 mutant (a) and wild-type enzyme, C342T-Gal-T1 (b), at different fixed concentrations of Mn^2+: (a) (●) 6 μM, (O) 20 μM, (▾) 0.5 mM, (open triangle) 1.5 mM, and (▪) 5 mM and (b) (●) 6 μM, (open triangle) 80 μM, (▪) 0.5 mM, (▴) 1.5 mM, and (A) 5 mM. The activity of the mutant (a) is inhibited above 2-5 mM GlcNAc at any concentrations of Mn^2+, whereas the activity of the wild type (b) is inhibited at 25-30 mM GlcNAc and above 0.5 mM Mn^2+. (c) Effect of either GlcNAc, chitobiose, or β-benzyl-GlcNAc concentration on Gal-T activity of the mutant M344H-Gal-T1 in the presence of 5 mM Mn^2+. Arrows indicate the inhibition concentration for the respective curves. It is known that the disaccharide chitobiose binds strongly to the Gal-T1 compared to the monosaccharide GlcNAc. The higher the affinity of the acceptor substrate, the lower the required inhibition concentrations.
(§2) The inhibition of the M344H-Gal-T1 mutant with higher concentrations of the acceptor is independent of the concentration of Mn^2+ used in the assay (FIGS. 7A-C), while in the wild type, low concentrations of metal have no effect on acceptor inhibition (FIGS. 7A-C). […]

[1] = β4Gal-T enzyme assay, specific activity in the presence of various metal ions; settings: for Catalytic Activity in the Presence of Various Metal Ions: Co: 0.1 mM Co^2+; for Catalytic Activity in the Presence of Various Metal Ions: Co / Catalytic Activity in the Presence of Various Metal Ions: Zn / Catalytic Activity in the Presence of Various Metal Ions: Ca / Catalytic Activity in the Presence of Various Metal Ions: Mg / Catalytic Activity in the Presence of Various Metal Ions: Mn / Catalytic Activity in the Presence of Various Metal Ions: Sr: 500 μM UDP-Gal, 25 mM GlcNAc; for Catalytic Activity in the Presence of Various Metal Ions: Zn: 0.1 mM Zn^2+; for Catalytic Activity in the Presence of Various Metal Ions: Ca / Catalytic Activity in the Presence of Various Metal Ions: Mg / Catalytic Activity in the Presence of Various Metal Ions: Mn / Catalytic Activity in the Presence of Various Metal Ions: Sr: 5 mM metal ion
Protocol: Protein concentrations were measured using the Bio-Rad Protein Assay kit, based on the method of Bradford and further verified on SDS-PAGE gels using standard protein concentration markers. An in vitro assay procedure for Gal-T1 has been reported previously (Ramakrishnan et al., J. Mol. Biol., 310:205 (2001)). The activities were measured using UDP-Gal as sugar nucleotide donor, and GlcNAc as the acceptor sugar. For the specific activity measurements, a 100 μL incubation mixture containing 25 mM GlcNAc, 5 mM MnCl2 or MgCl2, 20 mM Tris-HCl pH 8.0, 500 μM UDP-Gal, 500 ng M344H-Gal-T1 or 30 ng of C342T-Gal-T1 and 0.5 μCi ^3H-UDP-Gal was used for each Gal-T reaction. The incubation was carried out at 30° C. for 15 minutes. The reaction was terminated by adding of 200 μl cold water, and the mixture was passed through a 0.5 mL bed volume column of AG 1-X8 […] resin (Bio-Rad) to remove any unreacted ^3H-UDP-Gal. The column was washed successively with 300, 400 and 500 μl of cold water, and the column flow-through was diluted with Biosafe scintillation fluid; radioactivity was measured with a Beckman counter. A reaction without the acceptor sugar was used as a control. Only 0.1 mM concentration of ZnCl2 or CoCl2 was used whenever Zn^2+ or Co^2+ was used during the enzyme assay.

[2] = Metal ion activation curve, metal binding constants for Mn^2+
Description: The activation curve of M344E-Gal-T1, using Mn^2+, is strikingly different from that of the wild-type enzyme (FIGS. 1A and 1B). In contrast to the wild type enzyme, the velocity curve obtained with the Mn^2+ concentration for the M344E-Gal-T1 mutant is not sigmoidal. On the other hand, the same curve for the M344H-Gal-T1 mutant in the presence of the Mg^2+ is sigmoidal (FIG. 1C). The observation that activation of the wild type enzyme by metal ions is sigmoidal has been interpreted as involving two metal binding sites in the enzyme: one with high affinity (Kd1), which is associated with low velocity, and a second site with low affinity (Kd2), which is associated with high velocity (Powell and Brew, J. Biol. Chem., 251:3645 (1976); Boeggeman and Qasba, Glycobiology, 12:395 (2002)). […] The values of the dissociation constant (Kd) for Mn^2+ of the mutant are quite different from that of the wild type (Table IV).
The enzyme activation data at various concentrations of Mg^2+ were fitted to an equation describing metal binding to a high affinity site (K1) to generate an enzyme form with a low kcat (V1) and to a second, lower affinity site (K2) to generate a form with a higher kcat (V2) (Boeggeman and Qasba, Glycobiology, 12:395 (2002)): […]

[3] = Two-substrate kinetic analysis of galactose transfer; settings: with Mn^2+
Description: The true Km of the donor (KA) and of the acceptor (KB), the dissociation constant of the donor, Kia, and kcat, were obtained using two-substrate analyses and the primary plots of at least five concentrations of donor (UDP-Gal) and five concentrations of acceptor, and the corresponding secondary plots of the intercepts and slopes. Initial rate conditions were linear with respect to time. A suitable range of donor and acceptor concentrations was chosen, which allowed accurate Michaelis-Menten constants to be derived. The data were also analyzed for a general two-substrate system using the following equations (Herbert, Initial Rate Enzymatic Kinetics, Springer-Verlag, New York (1975)) with the software EnzFitter, a Biosoft non-linear curve fitting program for Windows:
[formula] Here ν is the initial velocity and the rate equation for a sequential symmetrical, initial velocity pattern associated with equation 1, an ordered or random equilibrium mechanism in which substrate A dissociates well from the ECS complex with a dissociation constant of Kia. Equation 2 is for an asymmetric initial velocity pattern for a double-displacement or “ping-pong” mechanism. The kinetic parameters KA, KB, Kia, and Vmax were obtained from the fitted curves using the above rate equations. The graphical method and EnzFitter program gave very similar kinetic parameters.
This is quite similar to that of the wild-type enzyme (FIG. 2B) (Takase and Ebner, Curr. Top. Cell Regul., 24:51 (1984); Boeggeman and Qasba, Glycobiology, 12:395 (2002)). […] Although the catalytic efficiency with respect to donor and acceptor, compared to the wild-type enzyme with Mn^2+, has decreased by an order of about 13 and 6, respectively, the turnover number of the mutant, kcat, is reduced by only 60%. The lesser effect on kcat could be the result of Mg^2+ participating more efficiently in the formation of the transition state complex during the transfer reaction by the mutant or minor differences in the coordination geometry of the Mg^2+ in the mutant compared to that of Mn^2+ ion in the wild-type enzyme. The crystal structure of the M344H-Gal-T1 in complex with UDP-Gal in the presence of either Mn^2+ or Mg^2+ was then determined and compared to the structure with the wild-type UDP-Gal.metal complex. Crystal structure analysis of the M344E-Gal-T1 mutant in the presence of UDP-Gal and Mn^2+ was conducted to further understand the effect of the M344E mutation on the metal-ion binding site.

[4] = Effect of the acceptor concentration on Gal-T activity of the enzyme; settings: in the presence of Mn^2+
Protocol: as §1, §2

Molecule | inhibition of the catalytic activity of the M344H-Gal-T1 mutant by the acceptor (M344H-Gal-T1) | Catalytic Activity in the Presence of Various Metal Ions: Co [1] | Catalytic Activity in the Presence of Various Metal Ions: Zn [1] | Catalytic Activity in the Presence of Various Metal Ions: Ca [1] | Catalytic Activity in the Presence of Various Metal Ions: Mg [1] | Catalytic Activity in the Presence of Various Metal Ions: Mn [1] | Catalytic Activity in the Presence of Various Metal Ions: Sr [1] | activation of the enzyme by Mg^2+ ([1]; Mg^2+) | Kd ([2]; with Mn^2+, read-out: metal ion Kd1) [µM] | Kd ([2]; with Mn^2+, read-out: metal ion Kd2) [µM] | GlcNAc KB (true Km of the acceptor) [3] [mM] | Kcat [3] [s⁻¹] | Kcat/KA [3] [M⁻¹ s⁻¹] | Kia (dissociation constant of the donor) [3] | UDP-Gal KA (true Km of the donor) [3] | UDP-Gal Vmax [3] | GlcNAc concentrations at which catalytic activity is inhibited [4] [mM] | GlcNAc concentrations at which catalytic activity is inhibited ([4]; listed as C342T-Gal-T1) [mM] | K1 compared with binding to the primary site of the wild type ([2]; Mn^2+) | Kd ([2]; single metal binding site model, derived from FIG. 1B, read-out: binding constant K1 for Mn^2+) [µM]
CC(=O)N[C@H]1[C@H](OCc2ccccc2)O[C@H](CO)[C@@H](O)[C@@H]1O [β-benzyl-GlcNAc] | at very low concentrations much more strongly than GlcNAc does | – | – | – | – | – | – | – | – | – | – | – | – | – | – | – | – | – | – | –
wild-type β4Gal-T1: residues 130 to 402 of bovine Gal-T1 with Cysteine to Threonine exchange at 342 (C342T), used as wild-type enzyme (protein, UniProt P08037 130-402, looked up, variant C342T, catalytic domain, residues 130 to 402 of bovine Gal-T1 with Cysteine to Threonine exchange at 342 (C342T), used as wild-type enzyme) SLTACPEESPLLVGPMLIEFNIPVDLKLVEQQNPKVKLGGRYTPMDCISPHKVAIIIPFRNRQEHLKYWLYYLHPILQRQQLDYGIYVINQAGESMFNRAKLLNVGFKEALKDYDYNCFVFSDVDLIPMNDHNTYRCFSQPRHISVAMDKFGFSLPYVQYFGGVSALSKQQFLSINGFPNNYWGWGGEDDDIYNRLAFRGMSVSRPNAVIGKTRMIRHSRDKKNEPNPQRFDRIAHTKETMLSDGLNSLTYMVLEVQRYPLYTKITVDIGTPS | – | 0.41^b picomoles per minute per nanogram | 1.42 picomoles per minute per nanogram | 0 picomoles per minute per nanogram | 0 picomoles per minute per nanogram | 5.35 picomoles per minute per nanogram | 0 picomoles per minute per nanogram | does not activate | 30 | 400 | 10 | 3.6 | 40000 | 0 | 95(6) μM | 6.4(4) pmol min^−1 ng^−1 | 20 to 25 | 25 to 30 | – | –
M344E-Gal-T1: bovine β4Gal-T1 catalytic domain (C342T) with Met344 mutated to glutamic acid (protein, listed as Bos taurus) MKFREPLLGGSAAMPGASLQRACRLLVAVCALHLGVTLVYYLAGRDLRRLPQLVGVHPPLQGSSHGAAAIGQPSGELRLRGVAPPPPLQNSSKPRSRAPSNLDAYSHPGPGPGPGSNLTSAPVPSTTTRSLTACPEESPLLVGPMLIEFNIPVDLKLIEQQNPKVKLGGRYTPMDCISPHKVAIIILFRNRQEHLKYWLYYLHPMVQRQQLDYGIYVINQAGESMFNRAKLLNVGFKEALKDYDYNCFVFSDVDLIPMNDHNTYRCFSQPRHISVAMDKFGFSLPYVQYFGGVSALSKQQFLSINGFPNNYWGWGGEDDDIYNRLAFRGMSVSRPNAVIGKCREIRHSRDKKNEPNPQRFDRIAHTKETMLSDGLNSLTYMVLEVQRYPLYTKITVDIGTPS | – | 0.24 picomoles per minute per nanogram | 0.27 picomoles per minute per nanogram | 0.01 picomoles per minute per nanogram | 0 picomoles per minute per nanogram | 0.32 picomoles per minute per nanogram | 0.02 picomoles per minute per nanogram | – | – | – | – | – | – | – | – | – | – | – | fifty-fold lower | 0.5
